According to EP4682164A1 (Curogen Technology Co., Ltd., dated 2026):

T1: wild-type IL-17RC (wtIL-17RC) (human, UniProt Q8NAC3 21-538, limits assumed)
T1 construct: also called IL-17RC wild type
T1 sequence (looked up): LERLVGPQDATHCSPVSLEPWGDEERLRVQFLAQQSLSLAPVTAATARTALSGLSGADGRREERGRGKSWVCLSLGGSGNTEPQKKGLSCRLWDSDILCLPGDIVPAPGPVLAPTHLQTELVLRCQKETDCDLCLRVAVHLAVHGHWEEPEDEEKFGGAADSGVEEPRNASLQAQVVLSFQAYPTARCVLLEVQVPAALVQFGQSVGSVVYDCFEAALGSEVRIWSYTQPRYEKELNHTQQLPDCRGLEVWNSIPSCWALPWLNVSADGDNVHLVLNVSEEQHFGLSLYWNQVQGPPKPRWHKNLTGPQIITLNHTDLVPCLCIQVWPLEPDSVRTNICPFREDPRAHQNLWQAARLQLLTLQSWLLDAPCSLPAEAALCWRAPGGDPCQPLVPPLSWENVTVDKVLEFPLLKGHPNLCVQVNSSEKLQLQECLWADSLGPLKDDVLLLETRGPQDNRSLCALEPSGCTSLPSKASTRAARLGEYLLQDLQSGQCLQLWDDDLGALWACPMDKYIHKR

T2: murine TNFα (mouse, UniProt P06804 80-235)
T2 construct: also called mTNFα; mouse TNFα
T2 sequence (looked up): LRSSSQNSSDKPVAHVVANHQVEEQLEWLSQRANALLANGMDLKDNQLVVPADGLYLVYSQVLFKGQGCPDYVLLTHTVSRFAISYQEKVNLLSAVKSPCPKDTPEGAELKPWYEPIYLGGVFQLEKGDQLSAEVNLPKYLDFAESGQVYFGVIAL

B1: human IL-17F (IL-17FF homodimer) (ligand, UniProt Q96PD4 31-163, looked up)
chain: RKIPKVGHTFFQKPESCPPVPGGSMKLDIGIINENQRVSMSRNIESRSTSPWNYTVTWDPNRYPSEVVQAQCRNLGCINAQGKEDISMNSVPIQQETLVVRRKHQGCSVSFQLEKVLVTVGCTCVTPVIHHVQ
notes: also called hIL-17F; hIL-17FF
B2: IL-17RA/RC-Fc-mTNFR2 (T1-mT4-35) (Fc fusion)
chain: LRLLDHRAPVCSQPGLNCTVKNSDCLDDSWIHPRNLTPSSPKDLQIQLHFAHTQQGDLVPVAHIEWTLQTDASILYLEGAELSVLQLDTNERLCVRFEFLSKLRHHHRRWRFTFSHFVVDPGQEYEVTVHHLPKPIPDGDPNHQSKNFLVPDCEHPRMKVTTPCMSSALPWLNVSADGDNVHLVLNVSEEQHFGLSLYWNQVQGPPKPRWHKNLTGPQIITLNHTDLVPCLCIQVWPLEPDSVRTNICPFREDPRAHQNLWQAARLRLLTLQSWLLDAPCSLPAEAALCWRAPGGDPCQPLVPPLSWENVTVDKVLEFPLLKGHPNLCVQVNSSEKLQLQECLWADSLGPLKDDVLLLETRGPQDNRSLCALEPSGCTSLPSKASTRAARLGEYLLQDLQSGQCLQLWDDDLGALWACPMDKYIHKTGIEGRMDRNTGRGGEEKKKEKEKEEQEERETKTPECPSHTQPLGVFLFPPKPKDTLMISRTPEVTCVVVDVSQEDPEVQFNWYVDGVEVHNAKTKPREEQFNSTYRVVSVLTVLHQDWLNGKEYKCKVSNKGLPSSIEKTISKAKGQPREPQVYTLPPSQEEMTKNQVSLTCLVKGFYPSDIAVEWESNGQPENNYKTTPPVLDSDGSFFLYSRLTVDKSRWQEGNVFSCSVMHEALHNHYTQKSLSLSLGKGGGGSGGGGSGGGGSLEVPAQVVLTPYKPEPGYECQISQEYYDRKAQMCCAKCPPGQYVKHFCNKTSDTVCADCEASMYTQVWNQFRTCLSCSSSCTTDQVEIRACTKQQNRVCACEAGRYCALKTHSGSCRQCMRLSKCGPGFGVASSRAPNGNVLCKACAPGTFSDTTSSTDVCRPHRICSILAIPGNASTDAVCAPESPTLSAIPRTLYVSQPEPTRSQPLDQEPGPSQTPSILTSLGSTPIIEQSTKGG
notes: The hTNFR2 ECD is replaced by the mouse TNFR2 ECD; also called hT1-mT4-35; T1-T4-35

Columns and labels:
[1] = molecular target: T1, wild-type IL-17RC (wtIL-17RC); assay: binding affinity analysis of Table 12 (Octet BLI as described in Example 5)
murine TNFα = molecular target: T2, murine TNFα; assay: ELISA as in Example 8, cytokine coated on plate
[2] = molecular target: T3, human IL-17A (IL-17AA homodimer) (human, UniProt Q16552 20-155, limits assumed); assay: ELISA as in Example 8, cytokine coated on plate
T3 construct: also called hIL-17A; hIL-17AA

[3] = molecular target: B1; assay: ELISA as in Example 8, cytokine coated on plate

T3 sequence (Q16552 20-155 limits assumed): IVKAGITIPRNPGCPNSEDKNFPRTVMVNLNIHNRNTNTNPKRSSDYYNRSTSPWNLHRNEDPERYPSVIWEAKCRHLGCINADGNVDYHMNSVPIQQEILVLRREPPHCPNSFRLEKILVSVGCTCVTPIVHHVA

Kd [1] | EC50 (murine TNFα) | EC50 [2] | EC50 [3] | Binder
4 nM | – | – | – | B1
– | 0.071 µg/mL | 0.0803 µg/mL | 0.0907 µg/mL | B2
